From PMC12046049, “Filamin C dimerisation is regulated by HSPB7” (Nature Communications, 2025)
Numbering of substitutions follows the chain as printed. Names and notes keep the numbering of the source.

B1: FLNCd24 (domain 24 of filamin C, residues 2630-2724), wild type (domain or fragment, human)
chain: GSKFSSDASKVVTRGPGLSQAFVGQKNSFTVDCSKAGTNMMMVGVHGPKTPCEEVYVKHMGNRVYNVTYTVKEKGDYILIVKWGDESVPGSPFKVKV
notes: residual Gly-Ser overhang left on the N-terminus after TEV cleavage of the His6 tag; filamin C, human, C-terminal Ig-like domain 24, residues 2630-2724; also called FLNCd24 WT; source: E. coli BL21(DE3), purified (HisTrap, TEV cleavage); not shown: His6, N-terminal, cleaved
B2: FLNCd24^T2677D (phosphomimic) (domain or fragment, human)
chain: B1 chain with T50D
notes: residual Gly-Ser overhang left on the N-terminus after TEV cleavage of the His6 tag; filamin C, human, domain 24, residues 2630-2724, T2677D; source: E. coli BL21(DE3), purified (HisTrap, TEV cleavage); not shown: His6, N-terminal, cleaved
B3: FLNCd24^Y2683E (phosphomimic) (domain or fragment, human)
chain: B1 chain with Y56E
notes: residual Gly-Ser overhang left on the N-terminus after TEV cleavage of the His6 tag; filamin C, human, domain 24, residues 2630-2724, Y2683E; source: E. coli BL21(DE3), purified (HisTrap, TEV cleavage); not shown: His6, N-terminal, cleaved
B4: HSPB7ACD (α-crystallin domain, residues 78-162 of isoform 2) (domain or fragment)
chain: not shown
notes: residual Gly-Ser overhang left on the N-terminus after TEV cleavage of the His6 tag; HSPB7, human, core α-crystallin domain, residues 78-162 of isoform 2; numbers count on: isoform 2 (Q9UBY9-2); source: E. coli BL21(DE3), purified (HisTrap, TEV cleavage, HiTrap Q); not shown: His6, N-terminal, cleaved
B5: HSPB7ACD^C131S (domain or fragment)
chain: not shown
notes: residual Gly-Ser overhang left on the N-terminus after TEV cleavage of the His6 tag; HSPB7, human, core α-crystallin domain, residues 78-162 of isoform 2, C131S; numbers count on: isoform 2 (Q9UBY9-2); Mutation made to aid crystallisation; source: E. coli BL21(DE3), purified (HisTrap, TEV cleavage, HiTrap Q); not shown: His6, N-terminal, cleaved
B6: HSPB5 C-terminal peptide (cognate peptide of HSPB5ACD) (peptide)
chain: ERTIPITRE
modifications: Limits are not printed. 156-164, containing the IPI motif, is taken by convention from the peptide in the HSPB5 ACD-peptide structure PDB 4M5S; check residues come from the IPI motif, not numbered in

Assays:
[1] = target: T1, HSPB7ΔN (residues 78-175 of isoform 2) (human, UniProt Q9UBY9-2 78-175); test: native MS; HSPB7 construct at a range of FLNCd24 concentrations; competitive homo- and hetero-dimerisation fitted as a system of coupled equilibria; 200 mM ammonium acetate pH 6.9; conditions: both partners purified
T1 construct: residual Gly-Ser overhang left on the N-terminus after TEV cleavage of the His6 tag; HSPB7, human, residues 78-175 of isoform 2 (lacks the N-terminal region); numbers count on: isoform 2 (Q9UBY9-2); source: E. coli BL21(DE3), purified (HisTrap, TEV cleavage, HiTrap Q); not shown: His6, N-terminal, cleaved

[2] = target: the molecule itself; test: native MS; FLNCd24 alone, and mixed at a monomer ratio of 1:1 with HSPB7, HSPB7ΔN or HSPB7ACD; 200 mM ammonium acetate pH 6.9 (full-length HSPB7: 1 M)
[3] = target: the molecule itself; test: native MS; titration of FLNCd24 (WT or phosphomimic) alone; dimer to monomers; 200 mM ammonium acetate pH 6.9; three technical repeats
[4] = target: B3; test: native MS; HSPB7 construct at a range of FLNCd24 concentrations; competitive homo- and hetero-dimerisation fitted as a system of coupled equilibria; 200 mM ammonium acetate pH 6.9; conditions: both partners purified
[5] = target: B1; test: as above; conditions: both partners purified
[6] = target: B2; test: as above; conditions: both partners purified
[7] = target: B1; test: crystal structure; HSPB7ACD^C131S and FLNCd24 mixed 4:1, heterodimer isolated by gel filtration in 20 mM HEPES pH 8.0; crystals in 0.1 mM HEPES, 20% w/v PEG 8000, pH 7.0; 2.9 Å; conditions: both partners purified
[8] = target: T2, HSPB1ACD (α-crystallin domain of HSPB1) (human); test: native MS; ACD incubated with C-terminal peptide, peptide titration; 200 mM ammonium acetate pH 6.9; acetonitrile added to the source housing; fit with a Hill slope model for 1:1 binding; conditions: both partners purified
T2 construct: HSPB1, human, α-crystallin domain; also called ACD of HSPB1

[9] = target: T3, HSPB5ACD (α-crystallin domain of HSPB5) (human); test: as above; conditions: both partners purified
T3 chain: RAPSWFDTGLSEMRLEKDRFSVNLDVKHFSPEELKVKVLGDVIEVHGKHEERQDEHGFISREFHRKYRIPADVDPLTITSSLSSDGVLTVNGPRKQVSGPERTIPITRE

B1
Kd [1]: 6.7 ± 1.4 nM | stoichiometry N [2]: 2 | Kd [3]: 75.9 ± 8.4 nM

B2
Kd [3]: 8.5 ± 1 nM

B3
Kd [3]: 4050 ± 557 nM

B4
Kd [4]: 2.2 ± 0.6 nM | Kd [5]: 3.9 ± 0.9 nM | Kd [6]: 14.1 ± 0.5 nM

B5
binding result [7]: binds

ITIPVTFE [HSPB1 C-terminal peptide (cognate peptide of HSPB1ACD)]
Kd [8]: ≤ 100000 nM

B6
Kd [9]: ≤ 100000 nM
